Experimental data published in US20110014669A1, “Production of 1,4 Butanediol in a Microorganism” (Microbia, Inc., priority 2009, published 2011).

What follows are molecules tested on 5-hydroxy-2-oxopentanoate (assay: Enzyme assay, decarboxylase (step A5), aldehyde dehydrogenase linked reaction). Conditions: BDO biosynthetic pathway step A5.
Type: biochemical
Parameters: key: +: measureable activity detected in the assay; −: no measurable activity detected in the assay
Experimental: Enzyme expression and crude lysate preparation. The enzymatic activity of each candidate enzyme is evaluated, first in E. coli and subsequently in C. glutamicum. It will be apparent to one of skill in the art that the expression and lysate preparations may need to be modified depending on the host cell and recombinant gene of interest.
E. coli: E. coli strains transformed with expression clones, for example, pUC18 or MB4124 based clones having a medium strong constitutive promoter regulating the recombinant gene of interest, are grown aerobically in LB medium (Difco) containing the appropriate antibiotic(s). At an OD600 of 0.5, IPTG is added to a final concentration of 0.25 mM. The cultures are grown to a final OD600 of 1.5 at which time the cells are collected and harvested by centrifugation. Cell pellets are resuspended in BugBuster (Novagen) reagent containing benzonase and lysozyme. Alternatively, E. coli strains transformed with expression clones, are grown overnight aerobically at 37° C. in BHI containing the appropriate antibiotic(s). 300 μL of fresh overnight culture is used to inoculate 2.7 mL BHI containing 0.25 mM IPTG and the appropriate antibiotic. The cultures are grown aerobically for 4-5 hours at 37° C. at which time the cells are collected and harvested by centrifugation. Cell pellets are frozen at −80° C. for at least 15 minutes, then thawed and resuspended in BugBuster (Novagen) reagent. Lysis and lysate collection are performed according to the manufacturer's instructions and, for example, may involve use of a sonicator and/or French press. Cleared lysates are stored on ice until enzyme assays are performed.
C. glutamicum: C. glutamicum strains transformed with MB4124 expression clones containing the recombinant gene of interest are grown aerobically in BHI broth supplemented with the proper antibiotic(s). At an OD600 of 0.5, IPTG is added to a final concentration of 0.25 mM. The cultures are grown to a final OD600 of 1.5 at which time the cells are collected and harvested by centrifugation. The pellet is washed once in one volume of water and resuspended in lysis buffer (1.0 ml 1.0 M HEPES buffer, pH 7.5, 0.5 ml 1M KOH, 10 μl 0.5M EDTA, protease inhibitor cocktail, water to 5 ml; the final pH will vary depending on the individual enzyme being tested) and one volume of 0.1 mm acid washed glass beads. The mixture is repeatedly alternately vortexed and held on ice for 15 seconds, eight times. After centrifugation for 5 min at 4,000 rpm, the supernatant lysate is removed and respun for 20 min at 10,000 rpm. Alternatively, C. glutamicum strains transformed with MB4124 expression clones containing the recombinant gene of interest are grown aerobically overnight in BHI broth supplemented with the proper antibiotic(s). Five mL of fresh overnight culture is used to inoculate 200 mL BHI containing 0.25 mM IPTG and the appropriate antibiotic. The cultures are grown aerobically at 30° C. for 5-7 hours at which time the cells are collected and harvested by centrifugation at 4° C. The pellet is resuspended in 15 mL ice cold 39 mM KH2PO4, 61 mM K2HPO4, 0.5 M KCl and lysed using a BioSpec BeadBeater and following the manufacturer's instructions. The lysate is centrifuged at 16,000 RPM at 4° C. for 30 minutes and the supernatant retained on ice as the extract.
Protein Assays. Protein concentrations in lysates are determined according to the methods of Bradford et al. (Anal. Biochem. 72:248-254 [1976]) or by the method of Smith et al. (Anal. Biochem. 150(1):76-85 [1985]) and lysates are assayed according to the methods below.
Enzyme Assays. Enzyme assays are performed on the cell lysates prepared above. The activity for each recombinant enzyme is compared to a lysate from a vector only control culture which is generated in a fashion identical to the recombinant enzyme lysate. […]

| Molecule | Enzyme Assay |
| --- | --- |
| YeaUEc: Enzyme candidate for BDO biosynthetic pathway step A5, SEQ ID NO. 59 (protein, listed as Escherichia coli) MMKTMRIAAIPGDGIGKEVLPEGIRVLQAAAERWGFALSFEQMEWASCEYYSHHGKMMPDDWHEQLSRFDAIYFGAVGWPDTVPDHISLWGSLLKFRREFDQYVNLRPVRLFPGVPCPLAGKQPGDIDFYVVRENTEGEYSSLGGRVNEGTEHEVVIQESVFTRRGVDRILRYAFELAQSRPRKTLTSATKSNGLAISMPYWDERVEAMAENYPEIRWDKQHIDILCARFVMQPERFDVVVASNLFGDILSDLGPACTGTIGIAPSANLNPERTFPSLFEPVHGSAPDIYGKNIANPIATIWAGAMMLDFLGNGDERFQQAHNGILAAIEEVIAHGPKTPDMKGNATTPQVADAICKIILR | − |
| SpeFEc: Enzyme candidate for BDO biosynthetic pathway step A5, SEQ ID NO. 63 (protein, listed as Escherichia coli) MSKLKIAVSDSCPDCFTTQRECIYINESRNIDVAAIVLSLNDVTCGKLDEIDATGYGIPVFIATENQERVPAEYLPRISGVFENCESRREFYGRQLETAASHYETQLRPPFFRALVDYVNQGNSAFDCPGHQGGEFFRRHPAGNQFVEYFGEALFRADLCNADVAMGDLLIHEGAPCIAQQHAAKVFNADKTYFVLNGTSSSNKVVLNALLTPGDLVLFDRNNHKSNHHGALLQAGATPVYLETARNPYGFIGGIDAHCFEESYLRELIAEVAPQRAKEARPFRLAVIQLGTYDGTIYNARQVVDKIGHLCDYILFDSAWVGYEQFIPMMADCSPLLLDLNENDPGILVTQSVHKQQAGFSQTSQIHKKDSHIKGQQRYVPHKRMNNAFMMHASTSPFYPLFAALNINAKMHEGVSGRNMWMDCVVNGINARKLILDNCQHIRPFVPELVDGKPWQSYETAQIAVDLRFFQFVPGEHWHSFEGYAENQYFVDPCKLLLTTPGIDARNGEYEAFGVPATILANFLRENGVVPEKCDLNSILFLLTPAEDMAKLQQLVALLVRFEKLLESDAPLAEVLPSIYKQHEERYAGYTLRQLCQEMHDLYARHNVKQLQKEMFRKEHFPRVSMNPQEANYAYLRGEVELVRLPDAEGRIAAEGALPYPPGVLCVVPGEIWGGAVLRYFSALEEGINLLPGFAPELQGVYIEEHDGRKQVWCYVIKPRDAQSTLLKGEKL | − |
| PanDEc: Enzyme candidate for BDO biosynthetic pathway step A5, SEQ ID NO. 61 (protein, listed as Escherichia coli) MIRTMLQGKLHRVKVTHADLHYEGSCAIDQDFLDAAGILENEAIDIWNVTNGKRFSTYAIAAERGSRIISVNGAAAHCASVGDIVIIASFVTMPDEEARTWRPNVAYFEGDNEMKRTAKAIPVQVA | − |
| PoxBEc: Enzyme candidate for BDO biosynthetic pathway step A5, SEQ ID NO. 60 (protein, listed as Escherichia coli) MKQTVAAYIAKTLESAGVKRIWGVTGDSLNGLSDSLNRMGTIEWMSTRHEEVAAFAAGAEAQLSGELAVCAGSCGPGNLHLINGLFDCHRNHVPVLAIAAHIPSSEIGSGYFQETHPQELFRECSHYCELVSSPEQIPQVLAIAMRKAVLNRGVSVVVLPGDVALKPAPEGATMHWYHAPQPVVTPEEEELRKLAQLLRYSSNIALMCGSGCAGAHKELVEFAGKIKAPIVHALRGKEHVEYDNPYDVGMTGLIGFSSGFHTMMNADTLVLLGTQFPYRAFYPTDAKIIQIDINPASIGAHSKVDMALVGDIKSTLRALLPLVEEKADRKFLDKALEDYRDARKGLDDLAKPSEKAIHPQYLAQQISHFAADDAIFTCDVGTPTVWAARYLKMNGKRRLLGSFNHGSMANAMPQALGAQATEPERQVVAMCGDGGFSMLMGDFLSVVQMKLPVKIVVFNNSVLGFVAMEMKAGGYLTDGTELHDTNFARIAEACGITGIRVEKASEVDEALQRAFSIDGPVLVDVVVAKEELAIPPQIKLEQAKGFSLYMLRAIISGRGDEVIELAKTNWLR | − |
| GadBEc: Enzyme candidate for BDO biosynthetic pathway step A5, SEQ ID NO. 64 (protein, listed as Escherichia coli) MDKKQVTDLRSELLDSRFGAKSISTIAESKRFPLHEMRDDVAFQIINDELYLDGNARQNLATFCQTWDDENVHKLMDLSINKNWIDKEEYPQSAAIDLRCVNMVADLWHAPAPKNGQAVGTNTIGSSEACMLGGMAMKWRWRKRMEAAGKPTDKPNLVCGPVQICWHKFARYWDVELREIPMRPGQLFMDPKRMIEACDENTIGVVPTFGVTYTGNYEFPQPLHDALDKFQADTGIDIDMHIDAASGGFLAPFVAPDIVWDFRLPRVKSISASGHKFGLAPLGCGWVIWRDEEALPQELVFNVDYLGGQIGTFAINFSRPAGQVIAQYYEFLRLGREGYTKVQNASYQVAAYLADEIAKLGPYEFICTGRPDEGIPAVCFKLKDGEDPGYTLYDLSERLRLRGWQVPAFTLGGEATDIVVMRIMCRRGFEMDFAELLLEDYKASLKYLSDHPKLQGIAQQNSFKHT | − |
| MenDEc: Enzyme candidate for BDO biosynthetic pathway step A5, SEQ ID NO. 65 (protein, listed as Escherichia coli) MSVSAFNRRWAAVILEALTRHGVRHICIAPGSRSTPLTLAAAENSAFIHHTHFDERGLGHLALGLAKVSKQPVAVIVTSGTAVANLYPALIEAGLTGEKLILLTADRPPELIDCGANQAIRQPGMFASHPTHSISLPRPTQDIPARWLVSTIDHALGTLHAGGVHINCPFAEPLYGEMDDTGLSWQQRLGDWWQDDKPWLREAPRLESEKQRDWFFWRQKRGVVVAGRMSAEEGKKVALWAQTLGWPLIGDVLSQTGQPLPCADLWLGNAKATSELQQAQIVVQLGSSLTGKRLLQWQASCEPEEYWIVDDIEGRLDPAHHRGRRLIANIADWLELHPAEKRQPWCVEIPRLAEQAMQAVIARRDAFGEAQLAHRICDYLPEQGQLFVGNSLVVRLIDALSQLPAGYPVYSNRGASGIDGLLSTAAGVQRASGKPTLAIVGDLSALYDLNALALLRQVSAPLVLIVVNNNGGQIFSLLPTPQSERERFYLMPQNVHFEHAAAMFELKYHRPQNWQELETAFADAWRTPTTTVIEMVVNDTDGAQTLQQLLAQVSHL | − |
| LdcCEc: Enzyme candidate for BDO biosynthetic pathway step A5, SEQ ID NO. 62 (protein, listed as Escherichia coli) MNIIAIMGPHGVFYKDEPIKELESALVAQGFQIIWPQNSVDLLKFIEHNPRICGVIFDWDEYSLDLCSDINQLNEYLPLYAFINTHSTMDVSVQDMRMALWFFEYALGQAEDIAIRMRQYTDEYLDNITPPFTKALFTYVKERKYTFCTPGHMGGTAYQKSPVGCLFYDFFGGNTLKADVSISVTELGSLLDHTGPHLEAEEYIARTFGAEQSYIVTNGTSTSNKIVGMYAAPSGSTLLIDRNCHKSLAHLLMMNDVVPVWLKPTRNALGILGGIPRREFTRDSIEEKVAATTQAQWPVHAVITNSTYDGLLYNTDWIKQTLDVPSIHFDSAWVPYTHFHPIYQGKSGMSGERVAGKVIFETQSTHKMLAALSQASLIHIKGEYDEEAFNEAFMMHTTTSPSYPIVASVETAAAMLRGNPGKRLINRSVERALHFRKEVQRLREESDGWFFDIWQPPQVDEAECWPVAPGEQWHGFNDADADHMFLDPVKVTILTPGMDEQGNMSEEGIPAALVAKFLDERGIVVEKTGPYNLLFLFSIGIDKTKAMGLLRGLTEFKRSYDLNLRIKNMLPDLYAEDPDFYRNMRIQDLAQGIHKLIRKHDLPGLMLRAFDTLPEMIMTPHQAWQRQIKGEVETIALEQLVGRVSANMILPYPPGVPLLMPGEMLTKESRTVLDFLLMLCSVGQHYPGFETDIHGAKQDEDGVYRVRVLKMAG | − |
